Values joined by “and” are separate entries in the source; they are usually repeats but may differ in a detail not shown here. Identical values can stand only once.
B1: FIXa-D104N/K106S/N260S/R318Y/R338E/R403E/E410N (protein)
chain 1: not shown
chain 2: not shown
B2: FIXa-D104N/K106S/K247N/N249S/N260S (protein)
chain 1: not shown
chain 2: not shown
B3: FIXa-Y155F/K247N/N249S/N260S (protein)
chain 1: not shown
chain 2: not shown
B4: FIXa-Y155F/N260S/R318Y/R338E/R403E/E410N (protein)
chain 1: not shown
chain 2: not shown
B5: FIXa-Y155F/R318Y/R338E/N346D/R403E/E410N (protein)
chain 1: not shown
chain 2: not shown
B6: FIXa-R318Y/R338E/Y345A/N346D/R403E/E410N (protein)
chain 1: not shown
chain 2: not shown
B7: FIXa-A103N/N105S/Y155F/R318Y/R338E/R403E/E410N (protein)
chain 1: not shown
chain 2: not shown
B8: FIXa-D203N/F205T/R318Y/E410N (protein)
chain 1: not shown
chain 2: not shown
B9: FIXa-D104N/K106S/Y155F/R318Y/R338E/R403E/E410N (protein)
chain 1: not shown
chain 2: not shown
B10: FIXa-Y155F/K247N/N249S/R318Y/R338E/R403E (protein)
chain 1: not shown
chain 2: not shown
B11: FIXa-K247N/N249S/R318Y/R338E/R403E (protein)
chain 1: not shown
chain 2: not shown
B12: FIXa-Y155F/R318Y/R338E/R403E/E410N (protein)
chain 1: not shown
chain 2: not shown

molecular target: Factor X (FX), P00742
Sequence (P00742 whole entry, looked up): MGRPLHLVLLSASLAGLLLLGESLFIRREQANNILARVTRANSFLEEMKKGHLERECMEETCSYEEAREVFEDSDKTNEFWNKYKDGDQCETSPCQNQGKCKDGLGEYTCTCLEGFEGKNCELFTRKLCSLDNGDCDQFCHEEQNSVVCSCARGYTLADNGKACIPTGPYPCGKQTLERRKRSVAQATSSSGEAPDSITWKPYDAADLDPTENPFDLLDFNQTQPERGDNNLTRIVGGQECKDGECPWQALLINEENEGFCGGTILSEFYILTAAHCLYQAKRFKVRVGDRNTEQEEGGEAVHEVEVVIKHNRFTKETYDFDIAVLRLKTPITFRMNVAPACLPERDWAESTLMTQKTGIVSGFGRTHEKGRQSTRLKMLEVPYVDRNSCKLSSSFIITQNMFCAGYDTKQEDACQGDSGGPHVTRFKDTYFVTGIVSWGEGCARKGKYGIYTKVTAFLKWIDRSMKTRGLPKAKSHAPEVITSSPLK

Question: B1 was tested. Which “% of WT kcat/KM (against Catalyst Biosciences WT FIXa), FX activation in the Xase complex” value (“% of WT kcat/KM … in the Xase complex” below) did it give?
Answer: 196%

Question: And the KM?
Answer: 0.0611 µM

Question: What about the KM (nM) for activation of FX by FIXa in the Xase complex (FVIIIa, PC/PS vesicles, Ca2+), fluorogenic Spectrafluor FXa assay of the same protein?
Answer: 61.1 nM

Question: And the kcat/KM for FX activation by FIXa in the Xase complex (FVIIIa, PC/PS vesicles, Ca2+), indirect fluorogenic Spectrafluor FXa assay?
Answer: 8.8e+07 M⁻¹ s⁻¹

Question: B2 was tested. Which “% of WT kcat/KM … in the Xase complex” value did it give?
Answer: 22%

Question: And the KM?
Answer: 0.0612 µM

Question: What about the KM (nM) for activation of FX by FIXa in the Xase complex (FVIIIa, PC/PS vesicles, Ca2+), fluorogenic Spectrafluor FXa assay of the same protein?
Answer: 61.2 nM

Question: What about the kcat/KM for FX activation by FIXa in the Xase complex (FVIIIa, PC/PS vesicles, Ca2+), indirect fluorogenic Spectrafluor FXa assay of the same protein?
Answer: 9.8e+06 M⁻¹ s⁻¹

Question: Which “% of WT kcat/KM … in the Xase complex” value does the source give for B3 here?
Answer: 43%

Question: What about the KM of the same protein?
Answer: 0.0965 µM

Question: What about the KM (nM) for activation of FX by FIXa in the Xase complex (FVIIIa, PC/PS vesicles, Ca2+), fluorogenic Spectrafluor FXa assay of the same protein?
Answer: 96.5 nM

Question: And the kcat/KM for FX activation by FIXa in the Xase complex (FVIIIa, PC/PS vesicles, Ca2+), indirect fluorogenic Spectrafluor FXa assay?
Answer: 1.9e+07 M⁻¹ s⁻¹

Question: Which results are given for B4?
Answer: % of WT kcat/KM (against Catalyst Biosciences WT FIXa), FX activation in the Xase complex: 156%; KM: 0.0839 µM; KM (nM) for activation of FX by FIXa in the Xase complex (FVIIIa, PC/PS vesicles, Ca2+), fluorogenic Spectrafluor FXa assay: 83.9 nM; kcat/KM for FX activation by FIXa in the Xase complex (FVIIIa, PC/PS vesicles, Ca2+), indirect fluorogenic Spectrafluor FXa assay: 7e+07 M⁻¹ s⁻¹

Question: With B5 as the protein, how does the “% of WT kcat/KM … in the Xase complex” value read?
Answer: 139%

Question: And the KM?
Answer: 0.1 µM

Question: And the KM (nM) for activation of FX by FIXa in the Xase complex (FVIIIa, PC/PS vesicles, Ca2+), fluorogenic Spectrafluor FXa assay?
Answer: 100 nM

Question: What about the kcat/KM for FX activation by FIXa in the Xase complex (FVIIIa, PC/PS vesicles, Ca2+), indirect fluorogenic Spectrafluor FXa assay of the same protein?
Answer: 6.2e+07 M⁻¹ s⁻¹

Question: Which results are given for B6?
Answer: KM: 0.0565 µM; kcat: 1.2 s⁻¹

Question: For B7, which “% of WT kcat/KM” value is on record?
Answer: 283% and 274%

Question: And the KM?
Answer: 0.0507 µM

Question: What about the KM for FX activation by FIXa in the Xase complex (FVIIIa/PC-PS/Ca2+), fluorogenic Spectrafluor FXa assay of the same protein?
Answer: 0.0507 µM

Question: What about the kcat of the same protein?
Answer: 6.4 s⁻¹

Question: With B8 as the protein, how does the “% of WT kcat/KM” value read?
Answer: 88% and 85%

Question: And the KM?
Answer: 0.0457 µM

Question: And the KM for FX activation by FIXa in the Xase complex (FVIIIa/PC-PS/Ca2+), fluorogenic Spectrafluor FXa assay?
Answer: 0.0457 µM

Question: And the kcat?
Answer: 1.6 s⁻¹

Question: With B9 as the protein, how does the “% of WT kcat/KM” value read?
Answer: 394% and 382%

Question: And the KM?
Answer: 0.048 µM

Question: And the KM for FX activation by FIXa in the Xase complex (FVIIIa/PC-PS/Ca2+), fluorogenic Spectrafluor FXa assay?
Answer: 0.048 µM

Question: What about the kcat of the same protein?
Answer: 8.5 s⁻¹

Question: B10 was tested. Which KM did it give?
Answer: 0.0673 µM

Question: And the kcat?
Answer: 5.7 s⁻¹

Question: What does the source list for B11?
Answer: KM: 0.0536 µM; kcat: 10.5 s⁻¹

Question: For B12, which “% of WT kcat/KM” value is on record?
Answer: 418% and 406%

Question: What about the KM of the same protein?
Answer: 0.0304 µM

Question: And the KM for FX activation by FIXa in the Xase complex (FVIIIa/PC-PS/Ca2+), fluorogenic Spectrafluor FXa assay?
Answer: 0.0304 µM

Question: What about the kcat of the same protein?
Answer: 5.3 s⁻¹

Source: US11491212
